Test results: publication PMC2910063
Like-named read-outs stand apart in the source and are kept apart here.

Assays:
[1] = biological target: T1, FoxM1-DBD (FoxM1C 222-360) (UniProt Q08050 222-360); experiment: fluorescence anisotropy
T1 sequence: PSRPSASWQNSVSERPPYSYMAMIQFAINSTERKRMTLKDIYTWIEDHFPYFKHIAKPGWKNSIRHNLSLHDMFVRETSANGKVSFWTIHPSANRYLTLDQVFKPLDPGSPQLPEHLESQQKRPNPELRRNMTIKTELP

[2] = biological target: T1, FoxM1-DBD (FoxM1C 222-360); experiment: fluorescence anisotropy; remark: listed apart in the source
[3] = biological target: T1, FoxM1-DBD (FoxM1C 222-360); experiment: competition fluorescence anisotropy
[4] = biological target: T2, FoxM1-DBD (FoxM1C 222-360), crystal (UniProt Q08050 222-360); experiment: X-ray crystallography 2.2 A
T2 sequence: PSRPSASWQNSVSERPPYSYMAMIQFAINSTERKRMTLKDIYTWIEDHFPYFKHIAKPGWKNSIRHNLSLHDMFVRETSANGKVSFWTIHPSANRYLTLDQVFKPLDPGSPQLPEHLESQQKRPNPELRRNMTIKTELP

B1: 11 bp consensus, TAMRA (dsDNA)
DNA 1: CCATAAACAAC
DNA 2: GTTGTTTATGG
With B1 the Kd [1] was 7 ± 0.3 µM and the Kd [2] was 7.5 ± 0.8 µM.

B2: 1x (dsDNA)
DNA 1: CCGATTGTTTAGCCCGTGCC
DNA 2: GGCACGGGCTAAACAATCGG
B2 gave an IC50 [3] of 7 µM.

B3: Fm1-2x-19nt-aa/tt (dsDNA)
DNA 1: AAATTGTTTATAAACAGCCCG
DNA 2: TTCGGGCTGTTTATAAACAAT
B3: binds [4].
